# Assay results: patent US20090004214A1 (COMMISSARIAT A L ENERGIE ATOMIQUE, published 2009)
# No end group written: not given here.
# T1: HLA-DR13 molecule (DRB1*1301) (human)
# T1 chain 1: not shown
# T1 chain 2: not shown
# B1: B1 21-36 peptide (nonbiotinylated) (peptide)
# peptide: TERVRLVTRHIYNREE
# modifications: not fully specified
# B2: survivin peptide 52-66 (peptide)
# peptide: PDLAQCFFCFKELEG
# notes: synthetic 15-mer
# B3: survivin peptide 84-98 (peptide)
# peptide: CAFLSVKKQFEELTL
# notes: synthetic 15-mer
# B4: survivin peptide 96-110 (peptide)
# peptide: LTLGEFLKLDRERAK
# notes: synthetic 15-mer
# B5: survivin peptide 99-113 (peptide)
# peptide: GEFLKLDRERAKNKI
# notes: synthetic 15-mer
# B6: survivin peptide 122-136 (peptide)
# peptide: KEFEETAKKVRRAIE
# notes: synthetic 15-mer
# B7: survivin peptide 128-142 (peptide)
# peptide: AKKVRRAIEQLAAMD
# notes: synthetic 15-mer
# B8: survivin peptide 8-22 (peptide)
# peptide: PAWQPFLKDHRISTF
# notes: synthetic 15-mer
# B9: survivin peptide 11-25 (peptide)
# peptide: QPFLKDHRISTFKNW
# notes: synthetic 15-mer
# B10: survivin peptide 41-55 (peptide)
# peptide: AGFIHCPTENEPDLA
# notes: synthetic 15-mer
# B11: survivin peptide 59-73 (peptide)
# peptide: FCFKELEGWEPDDDP
# notes: synthetic 15-mer
# B12: survivin peptide 87-101 (peptide)
# peptide: LSVKKQFEELTLGEF
# notes: synthetic 15-mer
# B13: survivin peptide 90-104 (peptide)
# peptide: KKQFEELTLGEFLKL
# notes: synthetic 15-mer
# B14: survivin peptide 91-105 (peptide)
# peptide: KQFEELTLGEFLKLD
# notes: synthetic 15-mer
# B15: survivin peptide 93-107 (peptide)
# peptide: FEELTLGEFLKLDRE
# notes: synthetic 15-mer
# B16: survivin peptide 17-31 (peptide)
# peptide: HRISTFKNWPFLEGC
# notes: synthetic 15-mer
# B17: survivin peptide 19-33 (peptide)
# peptide: ISTFKNWPFLEGCAC
# notes: synthetic 15-mer
# B18: survivin peptide 20-34 (peptide)
# peptide: STFKNWPFLEGCACT
# notes: synthetic 15-mer
# B19: survivin peptide 23-37 (peptide)
# peptide: KNWPFLEGCACTPER
# notes: synthetic 15-mer
# B20: survivin peptide 36-50 (peptide)
# peptide: ERMAEAGFIHCPTEN
# notes: synthetic 15-mer
# B21: survivin peptide 56-70 (peptide)
# peptide: QCFFCFKELEGWEPD
# notes: synthetic 15-mer
# B22: survivin peptide 72-86 (peptide)
# peptide: DPIEEHKKHSSGCAF
# notes: synthetic 15-mer
# B23: survivin peptide 102-116 (peptide)
# peptide: LKLDRERAKNKIAKE
# notes: synthetic 15-mer
# B24: survivin peptide 1-15 (peptide)
# peptide: MGAPTLPPAWQPFLK
# notes: synthetic 15-mer
# B25: survivin peptide 4-18 (peptide)
# peptide: PTLPPAWQPFLKDHR
# notes: synthetic 15-mer
# B26: survivin peptide 62-76 (peptide)
# peptide: KELEGWEPDDDPIEE
# notes: synthetic 15-mer
# Target: T1, HLA-DR13 molecule (DRB1*1301) (human)
# Assay: competitive ELISA, nonbiotinylated peptide vs its biotinylated tracer
row,Binder,IC50 [µM]
1,B1,0.8

# Target: T1, HLA-DR13 molecule (DRB1*1301) (human)
# Assay: competitive ELISA, tracer B1 21-36
row,Binder,IC50 [µM]
1,B1,0.609

# Target: T2, HLA-DR3 molecule (DRB1*0301) (human)
# T2 construct: HLA class II heterodimer
# Assay: competitive ELISA, tracer MT 2-16
row,Binder,IC50 [µM]
1,B2,11.8
2,B3,2.57
3,B4,5.48
4,B5,4.67
5,B6,5.81
6,B7,12
7,B8,16
8,B9,65

# Target: T3, HLA-DR4 molecule (DRB1*0401) (human)
# T3 construct: HLA class II heterodimer
# Assay: competitive ELISA, tracer HA 306-318
row,Binder,IC50 [µM]
1,B10,5
2,B2,22
3,B11,58
4,B3,19
5,B12,6.45
6,B13,0.748
7,B14,1.59
8,B15,5.5
9,B4,1.67
10,B5,2.13
11,B8,46
12,B9,45
13,B16,9.2
14,B17,0.615
15,B18,5.2
16,B19,5.2
17,B20,17

# Target: T4, HLA-DRB5 molecule (DRB5*0101) (human)
# T4 construct: HLA class II heterodimer
# Assay: competitive ELISA, tracer HA 306-318
row,Binder,IC50 [µM]
1,B10,3.38
2,B2,5.35
3,B21,20
4,B11,45
5,B22,6.2
6,B3,1.77
7,B12,6
8,B13,0.28
9,B14,0.145
10,B15,0.529
11,B4,0.103
12,B5,0.022
13,B23,0.018
14,B6,0.447
15,B24,8
16,B25,5.48
17,B8,2.19
18,B9,2.26
19,B16,0.302
20,B17,3.78
21,B19,3.42
22,B20,3.79

# Target: T5, HLA-DR1 molecule (DRB1*0101) (human)
# T5 construct: HLA class II heterodimer
# Assay: competitive ELISA, tracer HA 306-318
row,Binder,IC50 [µM]
1,B10,2.31
2,B2,4.1
3,B21,1.6
4,B11,3.76
5,B22,95
6,B3,2.83
7,B12,0.15
8,B13,0.04
9,B14,0.012
10,B15,0.128
11,B4,0.018
12,B5,0.048
13,B23,7.75
14,B6,5.56
15,B24,10.8
16,B25,45
17,B8,6.57
18,B9,6
19,B16,0.019
20,B17,0.01
21,B19,0.071
22,B20,2.55

# Target: T6, HLA-DR11 molecule (DRB1*1101) (human)
# T6 construct: HLA class II heterodimer
# Assay: competitive ELISA, tracer HA 306-318
row,Binder,IC50 [µM]
1,B10,1.15
2,B2,0.092
3,B21,0.363
4,B11,1.84
5,B3,0.01
6,B12,2.06
7,B13,2.35
8,B14,2.35
9,B15,0.548
10,B4,0.007
11,B5,0.04
12,B23,8.94
13,B6,0.31
14,B24,0.063
15,B9,0.329
16,B16,0.247
17,B17,0.147
18,B19,37
19,B20,5.59

# Target: T7, HLA-DRB4 molecule (DRB4*0101) (human)
# T7 construct: HLA class II heterodimer
# Assay: competitive ELISA, tracer E2/E168
row,Binder,IC50 [µM]
1,B10,0.328
2,B3,1.33
3,B12,9.8
4,B4,3.6
5,B5,22
6,B7,1.8
7,B8,29
8,B9,75
9,B16,7.5
10,B17,3.12
11,B18,5.5
12,B20,49

# Target: T8, HLA-DR13 molecule (DRB1*1301) (human)
# T8 construct: HLA class II heterodimer
# Assay: competitive ELISA, tracer B1 21-36
row,Binder,IC50 [µM]
1,B2,23
2,B22,11
3,B3,0.845
4,B15,7.8
5,B4,0.302
6,B5,9.17
7,B6,0.995
8,B25,40
9,B8,2.31
10,B9,2.41
11,B16,0.735
12,B17,9.5

# Target: T9, HLA-DRB3 molecule (DRB3*0101) (human)
# T9 construct: HLA class II heterodimer
# Assay: competitive ELISA, tracer LOL 191-210
row,Binder,IC50 [µM]
1,B10,10
2,B2,12.6
3,B21,12
4,B26,29
5,B3,11.8
6,B12,6.8
7,B13,48
8,B14,30
9,B15,45
10,B8,8.72
11,B9,3.67

# Target: T10, HLA-DR15 molecule (DRB1*1501) (human)
# T10 construct: HLA class II heterodimer
# Assay: competitive ELISA, tracer A3 152-166
row,Binder,IC50 [µM]
1,B10,7
2,B2,2.25
3,B21,3
4,B11,8
5,B26,65
6,B3,0.574
7,B12,4.8
8,B13,7.5
9,B14,3.16
10,B15,0.612
11,B4,0.49
12,B5,1.2
13,B6,1.2
14,B7,0.284
15,B24,80
16,B8,5.2
17,B9,0.022
18,B16,0.003
19,B17,0.081

# Target: T11, HLA-DP401 molecule (DPB1*0401) (human, UniProt P20036 29-222, limits assumed)
# T11 construct: HLA class II heterodimer; also called DP*0401
# Assay: competitive ELISA, tracer Oxy 271-287
row,Binder,IC50 [µM]
1,B3,0.167
2,B12,3.67
3,B13,0.048
4,B14,0.011
5,B15,0.02
6,B4,2.92
7,B5,40
8,B7,13
9,B24,9.2
10,B25,9
11,B8,21
12,B9,33
13,B16,0.04
14,B17,0.032
15,B20,3.62

# Target: T12, HLA-DP402 molecule (DPB1*0402) (human, UniProt P20036 29-222, limits assumed)
# T12 construct: HLA class II heterodimer; also called DP*0402
# Assay: competitive ELISA, tracer Oxy 271-287
row,Binder,IC50 [µM]
1,B2,4.58
2,B3,0.113
3,B12,6.39
4,B13,0.019
5,B14,0.012
6,B15,0.067
7,B4,0.62
8,B7,20
9,B24,6.93
10,B25,3.59
11,B8,10.5
12,B9,25
13,B16,0.029
14,B19,3.7
15,B20,3.17

# Target: T13, HLA-DR7 molecule (DRB1*0701) (human)
# T13 construct: HLA class II heterodimer
# Assay: competitive ELISA, tracer YKL
row,Binder,IC50 [µM]
1,B10,3.73
2,B2,6.67
3,B21,13
4,B11,9
5,B3,0.179
6,B12,0.705
7,B13,0.14
8,B14,0.056
9,B15,2.79
10,B4,5.64
11,B5,6.46
12,B23,50
13,B6,20
14,B7,1.34
15,B8,9.39
16,B9,8
17,B16,0.018
18,B17,0.748
19,B18,20
20,B19,60
21,B20,17
